Here are results for six substances from article PMC11500688.

Broadly, the stoichiometry N is the number of molecules, sites or subunits per partner or assembly.

Assay [1] concerns the target TbCFAP410-CTD, C-terminal domain of Trypanosoma brucei CFAP410, wild type (T. brucei). Put plainly: crystal structure; synthetic CTD polypeptides; TbCFAP410-CTD in 2.0 M (NH4)2SO4, 5% iso-propanol, 4°C; HsCFAP410-CTD in 1.5 M NaCl, 10% ethanol, 22°C; CrCFAP410-CTD in 0.02 M CaCl2, 0.1 M sodium acetate pH 5.0, 30% MPD, 4°C.
In assay [2] the target is HsCFAP410-CTD, C-terminal domain of Homo sapiens cilia- and flagella-associated protein 410, wild type (human) (UniProt O43822). The description is as above.
Assay [3] addresses CrCFAP410-CTD mutant L224P. The assay is described as follows: static light scattering (SLS). Conditions: parent: 15.62.
Assay [4] has as its target CrCFAP410-CTD mutant A219E. Put plainly: static light scattering (SLS). Conditions: parent: 15.62.
In assay [5] the target is CrCFAP410-CTD mutant A219E (C. reinhardtii). Put plainly: SEC-MALS; static light scattering coupled to SEC; 50 μl at 2 mg/ml on Superdex S-200 10/300 GL; 20 mM HEPES pH 7.5, 100 mM NaCl, 1 mM DTT, 1% glycerol; Mini-DAWN Treos. (SEC sorts molecules by how far they enter the pores of the column.)
The target in assay [6] is CrCFAP410-CTD, C-terminal domain of Chlamydomonas reinhardtii CFAP410, wild type (C. reinhardtii). The description is as above.
The target is the same in assay [7]. The assay is described as follows: crystal structure; synthetic CTD polypeptides; TbCFAP410-CTD in 2.0 M (NH4)2SO4, 5% iso-propanol, 4°C; HsCFAP410-CTD in 1.5 M NaCl, 10% ethanol, 22°C; CrCFAP410-CTD in 0.02 M CaCl2, 0.1 M sodium acetate pH 5.0, 30% MPD, 4°C.

Turning to “TbCFAP410-CTD, C-terminal domain of Trypanosoma brucei CFAP410, wild type (domain or fragment)”, the stoichiometry N in assay [1] was found to be 4. Consider “HsCFAP410-CTD, C-terminal domain of Homo sapiens cilia- and flagella-associated protein 410, wild type (from UniProt O43822 212-246) (domain or fragment)”, for which the stoichiometry N in assay [2] came to 4. Take “CrCFAP410-CTD, C-terminal domain of Chlamydomonas reinhardtii CFAP410, wild type L224P”: in assay [3], the other: molecular weight (SLS) stood at 4.16 kDa. Take “CrCFAP410-CTD, C-terminal domain of Chlamydomonas reinhardtii CFAP410, wild type A219E”: the other: molecular weight (SLS) in assay [4] came out at 8.35 kDa. In assay [5], “CrCFAP410-CTD mutant A219E (domain or fragment)” had a stoichiometry N of 2. For “CrCFAP410-CTD, C-terminal domain of Chlamydomonas reinhardtii CFAP410, wild type (domain or fragment)”, the stoichiometry N in assay [6] and in assay [7] was 4 throughout.
